This data set concerns the molecule itself. Briefly: crystal structure.

B1: Chloramphenicol acetyltransferase III (CATIII+GG construct) (enzyme)
chain: SGGNYTKFDVKNWVRREHFEFYRHRLPCGFSLTSKIDITTLKKSLDDSAYKFYPVMIYLIAQAVNQFDELRMAIKDDELIVWDSVDPQFTVFHQETETFSALSCPYSSDIDQFMVNYLSVMERYKSDTKLFPQGVTPENHLNISALPWVNFDSFNLNVANFTDYFAPIITMAKYQQEGDRLLLPLSVQVHHAVCDGFHVARFINRLQELCNSKLK
As for B1, the stoichiometry N – broadly, the number of molecules, sites or subunits per partner or assembly – was 3.
